Results published in article PMC2291074 (Molecular Vision, 2008).
Ends that are not written are not given here.

T1: recombinant human αB-crystallin (human, UniProt P02511 1-175)
T1 construct: human αB-crystallin, cDNA cloned into pET-23d(+); tryptic peptides 1-11 and 164-175 were observed; No tag is named and purification was by SEC and ion exchange, so it is probably untagged; source: E. coli BL21(DE3) pLysS, purified (size exclusion chromatography, then ion-exchange chromatography)
T1 sequence (looked up): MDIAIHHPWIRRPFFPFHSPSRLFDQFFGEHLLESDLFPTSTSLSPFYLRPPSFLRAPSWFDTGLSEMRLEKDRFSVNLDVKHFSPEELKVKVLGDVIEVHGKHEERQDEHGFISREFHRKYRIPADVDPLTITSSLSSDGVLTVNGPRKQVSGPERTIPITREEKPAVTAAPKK

B1: sulfo-SBED-derivatized βA3/A1_(102–117) peptide (peptide)
peptide: SDAYHIERLMSFRPIC
modifications: also: sulfo-SBED cross-linker attached, site not given here
notes: The peptide has no lysine, so the amine-specific reagent probably sits on the N-terminal amine; also called biotin-derivatized peptide; source: synthetic peptide, purified by HPLC, derivatized with sulfo-SBED and dialyzed

Legend:
[1] = target: T1, recombinant human αB-crystallin; experiment: cross-linking; sulfo-SBED label transfer: 0.25 mg derivatized peptide with 0.25 mg αB-crystallin at 37 °C for 2 h; unbound peptide removed on a 10,000 Da cut-off filter; photolysis at 365 nm for 15 min on ice; biotin on αB-crystallin detected by SDS-PAGE and avidin-HRP blot; conditions: both partners purified
[2] = target: T1, recombinant human αB-crystallin

Binder | binding result [1] | light scattering at 60 min of βL-crystallin (100 μg) denatured at 55 °C with 5 μg αB-crystallin and 60 μg substituted peptide (αB-crystallin alone: decreased by 41%); no anti-chaperone effect [2] [%]
B1 | binds | 
SDADHGERLMSFRPIC [substituted peptide] |  | 53
